Measured values from paper PMC9110426, “Cooperative regulation of PBI1 and MAPKs controls WRKY45 transcription factor in rice immunity”.

Target: T1, Myc-WRKY45 (Oryza sativa (rice), UniProt Q5W6D6 1-326)
T1 sequence: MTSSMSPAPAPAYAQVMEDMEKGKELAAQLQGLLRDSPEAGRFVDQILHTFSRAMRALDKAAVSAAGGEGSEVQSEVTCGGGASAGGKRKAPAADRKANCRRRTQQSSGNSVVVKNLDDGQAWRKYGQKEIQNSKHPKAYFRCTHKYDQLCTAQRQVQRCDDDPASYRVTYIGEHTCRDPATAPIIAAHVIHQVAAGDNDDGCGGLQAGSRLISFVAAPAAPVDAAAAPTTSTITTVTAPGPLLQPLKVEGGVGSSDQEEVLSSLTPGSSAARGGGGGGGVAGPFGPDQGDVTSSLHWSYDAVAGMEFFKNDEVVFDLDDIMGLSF
Assay: EMSA; 10 uM ZnCl2; poly(dI-dC); suppressed by excess unlabeled probe (40-fold in Methods, 50-fold in Supplementary Fig. 10c); 25 mM HEPES-KOH pH 7.6, 40 mM KCl, 0.1% Nonidet P-40, 10 uM ZnCl2, 1 mg/mL BSA, 10% glycerol, 1 mM DTT, 0.15 ug poly(dI-dC); 25 min at room temperature; 6% PAGE in Tris-borate at 4 C
Details: protein: ivt; tags: Myc; blunt

B1: DFA promoter W-box probe (dsDNA)
DNA 1: AGTTGGCAAAAGCTAAGTACAAGTCATTGTGTGGTCAATTGATCGACTGATCTGTTGCTC
DNA 2: GAGCAACAGATCAGTCGATCAATTGACCACACAATGACTTGTACTTAGCTTTTGCCAACT
Question: Does B1 bind?
Answer: binds
